Patent US10357572B2, “Prodrugs activated by caspase” (priority 2014, dated 2019)
Starred links: 1 amine or outer side, 2 acyl side, 3 side chain; linkers in the order of their positions; H or OH if unused. Non-standard residues stand in square brackets, D forms with d. Residues, ends and D or L forms follow the SMILES beside them. *: point of attachment. Doxorubicin(3'-N) = COc1cccc2c1C(=O)c1c(O)c3c(c(O)c1C2=O)C[C@@](O)(C(=O)CO)C[C@@H]3O[C@H]1C[C@H](N*)[C@H](O)[C@H](C)O1; Hexanoyl(6-maleimido) = O=C1C=CC(=O)N1CCCCCC(=O)*; PABC = O=C(OCc1ccc(N[*:1])cc1)[*:2]

How the values were obtained:
[1] = Plasma concentration-time curves of doxorubicin content after intravenous administration to monkeys; format: in vivo; settings: Cynomolgus monkeys, molar equivalent to 1 mg/kg of doxorubicin
Procedure: The pharmacokinetic profiles of the maleimide-KGDEVD-PABC-doxorubicin (SEQ ID NO: 10) and AcKGDEVD-PABC-doxorubicin (SEQ ID NO: 32) conjugates were determined after intravenous administration to Cynomolgus monkeys at a dose of molar equivalent to 1 mg/kg of doxorubicin (FIG. 28). Blood samples were collected at 15, 30, 45, 60, 90 minutes and then 2, 3, 4, 6, 8, 12, 24, 48, 72, 96, 120, 144, 168 hours post-injection (500 μl each). The collected blood samples were stabilized immediately with sodium citrate and centrifuged for 15 min at 2000×g in a refrigerated centrifuge to separate the plasma. The plasma samples (200 al) were transferred to a 96-well black microplate and the intrinsic fluorescence of doxorubicin was read at Ex 485 nm/Em 590 nm. A standard was prepared in fresh plasma and the fluorescence was read as described above.

[2] = Plasma concentration-time curve of doxorubicin content after intravenous administration to rats; format: in vivo; settings: Sprague-Dawley rats, molar equivalent to 1 mg/kg of doxorubicin
Procedure: The pharmacokinetic profile of the maleimide-KGDEVD-PABC-doxorubicin (SEQ ID NO: 10) and AcKGDEVD-PABC-doxorubicin (SEQ ID NO: 32) conjugates was determined after intravenous administration to Sprague-Dawley rats at a dose of molar equivalent to 1 mg/kg of doxorubicin (FIG. 25). Blood samples were collected at 5, 15, 30, 60, 90 minutes and then 2, 4, 8, 12, 24, 48, 72, 96, 144 hours post-injection (500 μl each). The collected blood samples were stabilized immediately with sodium citrate and centrifuged for 15 min at 2000×g in a refrigerated centrifuge to separated plasma. The plasma samples (200 μl) were transferred to a 96-well black microplate and the intrinsic fluorescence of doxorubicin was read at Ex 485 nm/Em 590 nm. A standard was prepared in fresh plasma and fluorescence was read as described above.

[3] = target: T1, recombinant human caspase-3 (Homo sapiens, UniProt P42574); assay: HPLC monitored cleavage study by recombinant human caspase-3; format: biochemical; settings: incubated with purified caspase-3, HPLC
T1 sequence (P42574 29-175 limits assumed): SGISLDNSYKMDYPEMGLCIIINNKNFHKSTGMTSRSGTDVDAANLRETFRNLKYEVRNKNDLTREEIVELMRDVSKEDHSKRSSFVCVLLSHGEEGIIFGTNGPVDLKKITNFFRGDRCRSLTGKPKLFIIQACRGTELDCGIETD
T1 sequence (P42574 176-277 limits assumed): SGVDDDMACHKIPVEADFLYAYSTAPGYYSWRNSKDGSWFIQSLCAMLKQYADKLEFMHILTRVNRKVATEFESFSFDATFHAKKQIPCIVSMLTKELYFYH
Text: Example 21—HPLC Monitored Cleavage Studies of Human Serum Albumin-Bound Maleimide-KGDEVD-PABC-Doxorubicin (SEQ ID NO: 10) (HSA-KGDEVD-PABC-Doxorubicin (SEQ ID NO: 31)) by Recombinant Human Caspase-3

## COc1cccc2c1C(=O)c1c(O)c3c(c(O)c1C2=O)C[C@@](O)(C(=O)CO)C[C@@H]3O[C@H]1C[C@H](NC(=O)OCc2ccc(NC(=O)[C@H](CC(=O)O)NC(=O)[C@@H](NC(=O)[C@H](CCC(=O)O)NC(=O)[C@H](CC(=O)O)NC(=O)CNC(=O)[C@H](CCCCN)NC(C)=O)C(C)C)cc2)[C@H](O)[C@H](C)O1 [AcKGDEVD-PABC-doxorubicin, Ac-Lys-Gly-Asp-Glu-Val-Asp-PABC-doxorubicin] (Ac-KGDEVD[PABC]-{Doxorubicin(3'-N)})
[1]
  time until plasma concentration decreased below the detection limit (5 ng/ml): ≤ 6 h
[1]; plasma fluorescence
  terminal half-life: 60 min
[2]
  time until plasma concentration decreased below the detection limit (5 ng/ml): ≤ 4 h
[2]; rat, in vivo, plasma fluorescence, read-out: terminal half-life
  half-life: 30 min

## COc1cccc2c1C(=O)c1c(O)c3c(c(O)c1C2=O)C[C@@](O)(C(=O)CO)C[C@@H]3O[C@H]1C[C@H](NC(=O)OCc2ccc(NC(=O)[C@H](CC(=O)O)NC(=O)[C@@H](NC(=O)[C@H](CCC(=O)O)NC(=O)[C@H](CC(=O)O)NC(=O)CNC(=O)[C@H](CCCCNC(=O)CCCCCN3C(=O)C=CC3=O)NC(C)=O)C(C)C)cc2)[C@H](O)[C@H](C)O1 [maleimide-KGDEVD-PABC-doxorubicin, Ac-Lys(EMC)-Gly-Asp-Glu-Val-Asp-PABC-doxorubicin] (Ac-K(Hexanoyl(6-maleimido))GDEVD[PABC]-{Doxorubicin(3'-N)})
[1]
  time the plasma concentration was detectable after administration: more than 7 days
[2]
  time the conjugate lasted in plasma after administration: more than 6 days

## HSA-maleimide-KGDEVD-PABC-doxorubicin
[3]
  time until free doxorubicin was completely liberated from the conjugate: ≤ 1 h
